Measurements as given in the nanobody polyreactivity screen of Harvey et al. (2022).

assay: yeast display, Sf9 membrane polyspecificity reagent, FACS + sequencing; frameworks hold sequencing errors
In short: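 A synthetic nanobody library was expressed on Saccharomyces cerevisiae BJ5465 by galactose induction for 36–48 hours. The library was stained for 1 hour at 4 °C with 10% biotinylated, detergent-solubilized Sf9 membrane reagent and enriched with streptavidin microbeads before FACS. Low and high (top ~1%) gates were set on anti-HA fluorescence for expression and streptavidin fluorescence for reagent binding, and each polyreactivity label reflects the gate of origin.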

Row | Sequence | polyreactivity (PSR sort gate)
1 | QVQIVESGGGLVQAGGSLRLSCAASGSTFYYNTMGWYRQAPGKERELVAAISWRRVSTYYADSVKGRFTISRDIAKNTVYFQMNSLKPEDTAVYYCNAVHHYPEHIGGGYWGQGSQVTVSS | low polyreactivity
2 | QVQIVESGGGLVQAGGSLRLSCAASGSTSTLNAMGWYRQAPGTERELVAAISRSGTSTYFADSVKGRFTISRDNAKNTVYLQMNSLKPEDTADYYCAAYSYGPPYYYWGQGTQVTVSS | high polyreactivity
3 | QVQIVESGGGLVQAGGSLRLSCAASGSTSVKYAMGWYRQAPGKERELVAAIRKRGDSTYYADSVKGRFTISRDYAKNTVYLQMNSLKPEDTAVYYFAAQYLRGRGYWGQGTQVTLSS | low polyreactivity
4 | QVQIVESGGGLVQAGGSLRLSCAAYGFTFYPYAMGWYRQAPGKERELVAAITRGGSTYYADSVKGRFTISRDNEKNTVYLQMNSLKPEDTAVYYCNAYWQGYGYDYWGQGTQVTVSS | low polyreactivity
5 | QVQIVESGGGLVQAGGSLRLSCADSGTTFRFNAIGWSRQAPGKERELVAAITGIGGITYYADSVKGRFTISRDNAKNTVYLQMNSLKPEDTAVYYCNAVAARYSVRNGYSTHYDYWGQGTQVTVSS | high polyreactivity
6 | QVQIVESGGGLVQAGGSLRLSCDASGSIFGRNAMGWYRQAPGKERELVAAITRTGGRTYYPDSVKGRITISRDNAKNTVYLQMNSLKPEDTEVKYCARYGGYWSLKYDYWGQGTQVTVSS | high polyreactivity
7 | QVQIVESGGGLVQAGGSLRLSCPASGSTFTRYPMGWYSQAPGKERELVAAISYSGSSTYYADSVKGRFTISRDNAKNTVYLEMICLIPEDTAVYYCAAGKQAPAVNYGYYYWGQCTQVTVSS | low polyreactivity
8 | QVQIVESGGGLVQAGGSLRLSFAASGRIFYNYALGWYRQAPGKERELVAAISGSGGSTYYADSVKGRFTISRDNAKNTVYLQMNSLKPEVTAVYYCSTSGPQYYSRNFDYWGQGTQVTVSS | low polyreactivity
9 | QVQIVESGGGLVQAGGSLSLSCAASGRTFAGNAMGWYRQAPGKEMELVASISSSGGRTYYADSVKGRFTISRDNAKNTVYLQMISLKPEDTAVYYCAARGGYVSTWTRFSKYNYWGQGTQVTVSS | high polyreactivity
10 | QVQIVESGGGLVQAGGSLSLSCAASGSILDQYAMGWYRQAPGKERELVAAITAIGDSTYYADSLKGRFTISRDNAKYTVYLQMYSLKPEVTAVYYCAGTYVGSDGGDYWGQGTQVTVAS | low polyreactivity
11 | QVQIVESGGGLVQAGGSLSLSCADYGSTFYHNVMGWYRQAPGKERELVASIDTGDSTNYADSVKGRFTISRDNAKNTVYLQMNSLKPEYTAVYYCNADSYPALNKRGYDYWGQGTQVTVSS | low polyreactivity
12 | QVQIVESGGGLVQAGGTLRLSCAPSGRTFAPNTMGWYRHAPGKEREFVARINSRGGSTYADSVKGRFTISRDNAKNTVYLQMNSLKPEDTAVYYCARKPYRGVYRYDYWGQGTQVTVSS | high polyreactivity
13 | QVQIVESGGGLVQAGVSLRLSCAASGSTFETNTMGWYRKAPGKERELVAAITTGGRTYYADSLKGRFSISRDNAKNNVYLQMNSLKPEDTAVYYCAVAYWNRQSLFRMYYWGQGTQVTVSS | high polyreactivity
14 | QVQIVESGGGLVQAGVSLRLSCAPSGSTFHLNAMGWYRQAPGKERELVAAISRGGSTYYADSVKGRFTISRDNAKNTVYLQMNRLKPEDTAVYYCNAVWSNFRLGYDYWGQGTQVNVSS | high polyreactivity
15 | QVQIVESGGGLVQARGSLLLSSAASGFTSNYYALGWYRHAPGKESELVAAITTGGSTHYADSVKGRFTFSRDNAQNTVYLQLNSLKQVDSAVYYCAAGTNRQQQRYFHNGGYYQYNYWGQGTQVTVSS | low polyreactivity
16 | QVQIVESGGGVVQAGGSLRLICAASGSTFNPYAMGSYRQAPGKERELVAAIRGRSGRTYYADSVKGRFTISRDNAKNTVYLQMTSLIPEDTAVYYCAARFSEYRTHPSEVYYWGQGTQVTVSS | high polyreactivity
17 | QVQIVESGGRIVQAGGSIRLSCAASGSTFLFYAMGRSRQAPGKERQLVAAISYSGGSTFYADSVKGRFTISRDNAKNTVYLQMNSLKPEDTAVYYCAAESYSYGFTHEYWGQGTQETVSS | high polyreactivity
18 | QVQIVESGRGLVQAGGSLRLSCAASGRIFYNDLMGWYRQAPGKERELVASISTGGTTYYSDSVKGRFTISRDNAKNTVYLQMNSLKPEDTAVYYCNAGLFYAPPFYTMDYWGQGTQVTVSS | low polyreactivity
19 | QVQIVESVGGLLQAGGSLRLSCAASGRIFQGYAMGWYRQAPGKERELVASISSCGRTYYADSVKGRFTISRDNAKNTVYLQFNSLTPEDTAVYYCAKRPQFFWSNPYDYWGLGTQVTVSS | high polyreactivity
20 | QVQIVETGGGLVQAGGSLGLSCAASGSNFGGNTMPCYRQAPGIERALVAAISRSGGSTYYADSVKGRFTISRDIAQNSVYVQMNSLKPEDTAVYYCNRKQAGQAQGYDYWGLGTQVTVSS | high polyreactivity
21 | QVQIVVSGGGLVQAGGRRRLSCAASGRFFWVYAMGWYRQAPGKERELVAAISRSGGITSYADSVKGRYTISRDNANYTVYLQMNSLKPEDTAVYCCAARSYFDGFYYWGQGAQVTVSS | high polyreactivity
22 | QVQLAESGGGLVQAGGSLRLSCAASGRIFSGYAMGWSRQAPGKERELVAAITSVGSTNYADSVKGRFTISRDNAKNTVYLQMNSLKPEDTAVYYCAAKFVRPYRMYYWGQGTQVTVSS | high polyreactivity

Row | Sequence | polyreactivity (PSR sort gate)
23 | QVQLAESGGGLVQAGGSLRLSCAASGRTFNLYAMGWYRQAPGKERELVASISSGGSTYYADSVKGRFTISRDNAKNTVYLQMNSLIPEDTAVYYCAARLAYGPRPMPSYEYYYWGQGTQVTVSS | low polyreactivity
24 | QVQLAESGGGLVQAGGSLRLSCAASGSIFRLNAMGWYRQAPGKERELVAAINSGTNTYYADSVKGRFTISRDNAKNTVYLQMNSLKPEDTAVYYCAADWNDWHYDYWGQGTQVTVSS | low polyreactivity
25 | QVQLAESGGGLVQAGGSLRLSCAASGSIFRLNAMGWYRQAPGKERELVAAINSGTNTYYADSVKGRFTISRDNAMNTVYLQMNSLKPEDTAVYYCAADWNDWHYDYWGQGTQVTVSS | low polyreactivity
26 | QVQLAESGGGLVQAGGSLRLSCAASGSILFNMGWYRQAPGKERELVAAIRYGGGRTYYADSVKGRFTISRDNAKNTVYLQMNSLKPEDTAVYYCAAPYKRNAGFDYWGQGTQVTVSS | low polyreactivity
27 | QVQLEDSGGGLLQAGGSLRLSCAASGRILYLYTMGWYRQAPGKERELVAAISRGGSTYYADSVKGRFTISRDNAKNTVYLQMNSLNPEDTAVYYCSADARGYQFNYWGQGTQVTVSS | high polyreactivity
28 | QVQLEDSGGGLVQAGGSLRLSCAASGFTFSYNAMGWYIQAPGKERELVAAISSRGTSTYYADSVKGRFTISRDNAKNTVYLQMNSLKPEDTAVYYCNTVPYFYLTFYPHYDYWGQGTQVTVSS | high polyreactivity
29 | QVQLEDSGGGLVQAGGSLRLSCAASGRIFYTYAMGWYRQAPGKERELVAAINRSGSSTYYADSVKGRFTISRDNAKNNVYLQMNSLKPEDTAVYYCNAQSYLYYGWVLTDVDYWGQGTQVTVSS | low polyreactivity
30 | QVQLEDSGGGLVQAGGSLRLSCAASGRTFPYKAMGWYRQAPGKERELVAAITSSGGSTYYADSVKGRFTISRDNAKNTVYLQMNSLKPEDTAVYYCAKGYYSPNYYYWGQGTQVTVSS | high polyreactivity
31 | QVQLEDSGGGLVQAGGSLRLSCAASGRTLYLYAMGWYRQAPGKERELVAAIDWRGTSTYYADSVKGRFTISRDNAKNTVYLEMNSLKPEDTAVYYCNARFRSYLRWYQRDYWGQGTKVTVSS | low polyreactivity
32 | QVQLEDSGGGLVQAGGSLRLSCAASGSIFATNAMGWYRQGPGKERELVAAISRSGASTYYADSVKGRFTISRDNAKNTVYLQMNRLKPEDTAVYYCNKVLYRDAYHSYGFEYWGQGTQVTVSS | high polyreactivity
33 | QVQLEDSGGGLVQAGGSLRLSCAASGSTFILNAMGWYRDAPGKERELVATISSSDTSTYYADSVKGRFTISRDNAKNTVYLQMNSLKPEDTAVYYCNADYYTTSYLQRVYHYGVEYDYWGQGTQVTVSS | low polyreactivity
34 | QVQLEDSGGGLVQAGGTHSLSCAASGFTFARNTMGWYRQAPGKERELVAAISWRGGRTYYADSVTGRFTISRDNAKNTDYLQMNRLKPEDRAVYYCNGVILKLGDALYDYWGEGTQVTVSS | high polyreactivity
35 | QVQLEDSGGGLVQAGVSLRLSSDASGSTIAGYVMGWYRQAPGKERELVAAISRSGGSTYYADSVKGRFTISRDNEKNTVYLQMNSLKPEDTAVYYCASRNSPGFPGDYWGQGSQVTVSS | high polyreactivity
36 | QVQLEDSLGGLVQAGGSLRLSCAASGGIFGLYDMGWYRQEPGKERELVAAISWSGGDTYYADSVKGRFTISRDNAKNTVYLQMNSLKPEDTAVYYCAADTYYYSGYEYDYWGQGTQVTVSS | high polyreactivity
37 | QVQLEDSRVGLVQAVGILRLSCASSGSTIDDNVMGWYRQAPRNERELVAAICSSGGSPYYADSVKGRFTISRDNAKNTDYLLMNSLKPEDTAVYYCNAVYFRLWGYYDRRSYNYWGQGTQVTVSS | low polyreactivity
38 | QVQLEEAVGGLLQAGGSLRFSCAASGGLFWVYAMGRYRQAPGKERELVAAISNSDTSTSYADSVKGRFTISRDNAQNTVYLQMNSLKAEDTAVYYCKADSPSLSGDSWGQGTQVNVSS | low polyreactivity
39 | QVQLEESAGGLVQAGGSLRLSCAASGLTFNYYAMGWYRQAPGKERELVAAITGRGGSTYYADSVKGRFTISRDNAKNTVYLQMNSLKPEDTAVYYCAADGGTRGYDYWGQGTQVTVSS | low polyreactivity
40 | QVQLEESGAALVQAGGSLRLSCAAMGWYRQSPGKERELLATITWSGGSTYYADSVKGRFTISRDNAKNTVYLQMNSLKPEDTAVYYCTARATLLSPANTIRGYDYWGQGTQVTVSS | low polyreactivity
41 | QVQLEESGGGFVQAGGRLRLSCAASGSIFQAYFMGWYRQAPGKERELVADISRSGGRTYYADSVKGRFTISRDNAKNTVYLQMNSLKPEDTGVYYCAADWRHLLYRGGLQYEYWGQGTQVTVSS | high polyreactivity
42 | QVQLEESGGGFVQAGGSLRLSCAASGYIFFPHAMGWYRQATWKERELVAAINSRGASTYYADSVKGRFTISRDNAKNTVSLQMNSLKPVDTAVYYCAKGSGLHIYHYYGVPYDYWGQGTQVTVSS | low polyreactivity
43 | QVQLEESGGGIVQAGGSLRLSCAASGSTFRKYAMRWYRQAPGKERDFVAAITWSTGTTYYADSVKGRFTISRDNAKNTVYLQMNSLKPEDTAVYFCAADSQPPHELYESIEHESWGQGTQVTVSS | low polyreactivity
